In US20090130104A1:

Biological target: murine PECAM-1 on cells (bEND3 endothelial cells; REN cells transfected with full-length mouse PECAM) (mouse) (UniProt Q08481)
Assay: flow cytometry on CD31 positive bEND3 endothelial cells

Sequence of murine PECAM-1 on cells (bEND3 endothelial cells; REN cells transfected with full-length mouse PECAM) (mouse) (Q08481 18-727): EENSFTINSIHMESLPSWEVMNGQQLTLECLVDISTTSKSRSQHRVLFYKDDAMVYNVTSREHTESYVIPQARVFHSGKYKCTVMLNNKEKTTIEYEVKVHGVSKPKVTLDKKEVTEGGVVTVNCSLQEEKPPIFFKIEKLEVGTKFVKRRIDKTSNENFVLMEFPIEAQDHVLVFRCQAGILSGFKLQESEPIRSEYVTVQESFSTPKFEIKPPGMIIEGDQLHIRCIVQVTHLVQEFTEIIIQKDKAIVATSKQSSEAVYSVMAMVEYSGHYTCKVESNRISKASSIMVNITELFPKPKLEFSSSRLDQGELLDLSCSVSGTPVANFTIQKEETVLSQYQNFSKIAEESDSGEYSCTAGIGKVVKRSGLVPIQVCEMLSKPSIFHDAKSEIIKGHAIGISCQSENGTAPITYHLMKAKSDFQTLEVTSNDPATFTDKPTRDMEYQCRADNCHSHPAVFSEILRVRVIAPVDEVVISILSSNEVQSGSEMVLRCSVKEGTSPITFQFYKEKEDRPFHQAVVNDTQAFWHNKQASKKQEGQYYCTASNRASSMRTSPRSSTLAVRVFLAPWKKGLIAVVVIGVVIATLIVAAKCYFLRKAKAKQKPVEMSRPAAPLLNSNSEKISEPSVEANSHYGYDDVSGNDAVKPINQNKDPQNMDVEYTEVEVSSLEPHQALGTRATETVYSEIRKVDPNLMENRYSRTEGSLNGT

half-maximal binding: 50 nM
Substance: anti-PECAM scFv (from antibody 390) tagged with soluble tissue factor (sTF)
